Source: paper PMC4053179

How the values were obtained:
[1] = biological target: recombinant p38α MAP kinase (mitogen activated protein kinase) (UniProt Q16539)
[2] = biological target: recombinant p38α MAP kinase (mitogen activated protein kinase) (UniProt Q16539); test: SPR; His-tagged p38α immobilised on an NTA sensor chip via Ni2+/NTA chelation, 25°C, BIAcore-2000; C-25 injected at 4.6 × 10^−6, 9.2 × 10^−6 and 13.8 × 10^−6 M; BIAevaluation 3.0

Chain of UniProt Q16539 (Q16539 whole entry): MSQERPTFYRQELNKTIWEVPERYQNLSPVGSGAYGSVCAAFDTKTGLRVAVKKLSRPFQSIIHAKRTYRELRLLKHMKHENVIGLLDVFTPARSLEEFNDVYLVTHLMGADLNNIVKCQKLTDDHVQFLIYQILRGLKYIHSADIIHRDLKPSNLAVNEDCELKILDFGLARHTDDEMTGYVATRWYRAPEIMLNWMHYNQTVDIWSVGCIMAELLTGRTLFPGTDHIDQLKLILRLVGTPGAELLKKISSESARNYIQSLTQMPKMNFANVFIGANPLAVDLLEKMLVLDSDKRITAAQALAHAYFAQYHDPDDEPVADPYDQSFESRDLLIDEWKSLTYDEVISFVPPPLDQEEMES

## C-25 protein from Cicer arietinum (natural protein)
[1]
  IC50 of inhibition of the phosphorylation of plate-coated ATF-2 by p38α (ELISA kinase assay, 100 μM ATP, C-25 at 1-25 μM, anti-phospho ATF-2 detection): 7.9 µM
[2]
  Kd: 0.269 µM
